In publication PMC5924515:

Experiments:
[1] = molecular target: T1, VapB15 (Synechocystis sp. PCC 6803) (UniProt P74009); assay: EMSA; conditions: 100 mM Tris-HCl pH 8.0, 100 mM NaCl, 1 mM DTT, 10% glycerol, 0.1 mg/mL sonicated salmon sperm DNA, 25 C, 30 min; 5% native PAGE in 0.5x TBE
T1 sequence: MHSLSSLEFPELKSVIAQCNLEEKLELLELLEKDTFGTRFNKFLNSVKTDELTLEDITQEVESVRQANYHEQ

[2] = molecular target: T2, VapB15;VapC15-His6 (Synechocystis sp. PCC 6803;Synechocystis sp. PCC 6803) (UniProt P74009+P74010); assay: EMSA
T2 sequence 1: T1 sequence
T2 sequence 2: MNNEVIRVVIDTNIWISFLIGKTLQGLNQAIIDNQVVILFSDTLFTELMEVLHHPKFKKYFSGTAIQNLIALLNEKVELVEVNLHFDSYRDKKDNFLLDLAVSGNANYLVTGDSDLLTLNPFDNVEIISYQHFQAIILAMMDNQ

Sequence | binding [1] | binding [2]
GAAATTCCAGTGATGACAATGAGTGCATTTCAACTTTTCTCCGAGAGGCGAATTATAACTCCCATTATCACATTTCCAAATAGTGCCCCAAGGAGTTGCTTGAAAAGTCCCC (double strand) [P2 (3' half of PS1 and whole PS2)] | no binding | 
CAAAGCTCTGGCAACCCTGCAGAACTTTAAACCTATCCCCCTAGGCTTGGGGCCAGGGGACTTTTCAAGCAACTCCTTGGGGCACTATTTGGAAATGTGATAATGGGAGTTATAATTCGCCTCTCGGAGAAAAGTTGAAATGCACTCATTGTCATCACTGGAATTTC (double strand) [P1 (PvapBC15 promoter, PS1 and PS2)] | binds | binds more weakly
